Measured values published in patent publication US20140051120A1 (Genentech, published 2014).
Where two headings read alike, the source gives them in different places. Where no end group is shown, it is not given here.

Key:
[1] = molecular target: T1, p2S (p2 peptide biotinylated through its free cysteine) (human, also: biotinylated (maleimide PEO2-biotin) on one of the two Cys, which one not given here); assay: SPR (BIAcore-2000), IgG injected over immobilized p2S peptide
T1 construct: The peptide has two cysteines; also called b-p2S
T1 peptide: RPRYACCPGWKRT

[2] = molecular target: T1, p2S (p2 peptide biotinylated through …); assay: as above
p5 peptide of EGFL7 [3] = molecular target: T2, p5 peptide of EGFL7 (human); assay: SPR (Biacore), IgG over immobilized P5 peptide at 37 C, n = 2
T2 construct: also called Peptide P5
T2 peptide: RACSTYRTIYRTA

[4] = molecular target: T3, mouse EGFL7 (mEGFL7-CB-His) (mouse, UniProt Q9QXT5 22-275); assay: SPR (Biacore), IgG over immobilized mEGFL7-CB at 37 C, n = 2
T3 sequence: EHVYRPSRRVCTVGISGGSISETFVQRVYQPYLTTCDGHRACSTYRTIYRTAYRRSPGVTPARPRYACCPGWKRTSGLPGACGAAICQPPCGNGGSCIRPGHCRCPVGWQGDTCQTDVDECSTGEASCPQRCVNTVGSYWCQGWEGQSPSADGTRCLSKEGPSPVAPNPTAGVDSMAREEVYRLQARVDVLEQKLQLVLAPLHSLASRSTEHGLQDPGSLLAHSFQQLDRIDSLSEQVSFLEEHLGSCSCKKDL

[5] = molecular target: T3, mouse EGFL7 (mEGFL7-CB-His); assay: SPR (Biacore), IgG over immobilized mEGFL7-CB at 37 C;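 also: IgG injected as twofold series from 0.5 to 1000 nM, 3 min association and 3.5 min dissociation, reference flow cell subtracted, kinetics fitted to 1:1 Langmuir model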
p5 peptide of EGFL7 [6] = molecular target: T2, p5 peptide of EGFL7; assay: SPR (Biacore), IgG over immobilized P5 peptide at 37 C;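 also: IgG variants injected at 0.5–1000 nM (2-fold series), 3 min association and 3.5 min dissociation, reference flow cell subtracted, kinetics fitted with a 1:1 Langmuir model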

B1: 4F11.v15 IgG (antibody, name in Kabat numbering, V domains shown)
VH: EVQLVESGGGLVQPGGSLRLSCAASGHTFTTYGMSWVRQAPGKGLEWVGWINTHSGVPTYADDFKGRFTISLDNSKNTAYLQMNSLRAEDTAVYYCARLGSSAVDYWGQGTLVTVSS
VL: DIQMTQSPSSLSASVGDRVTITCKASQSVDYDGDSYMSWYQQKPGKAPKLLIYGASNLESGVPSRFSGSGSGTDFTLTISSLQPEDFATYYCQQNNEDPYTFGQGTKVEIKR
notes: IgG; Kabat numbering
- Kd [1]: 30.5 nM
- koff [1]: 0.00276 s⁻¹
- kon [1]: 90500 M⁻¹ s⁻¹

B2: 4F11.v1 IgG (antibody, V domains shown)
VH: EVQLVESGGGLVQPGGSLRLSCAASGHTFTTYGMSWVRQAPGKGLEWVGWINTHSGVPTYADDFKGRFTISRDNSKNTLYLQMNSLRAEDTAVYYCARLGSSAVDYWGQGTLVTVSS
VL: DIQMTQSPSSLSASVGDRVTITCKASQSVDYDGDSYMSWYQQKPGKAPKLLIYGASNLESGVPSRFSGSGSGTDFTLTISSLQPEDFATYYCQQNNEDPYTFGQGTKVEIKR
notes: Expressed as IgG in 293 cells; also called 4F11-graft; direct CDR-graft
- Kd [2]: 96.8 nM
- koff [2]: 0.00331 s⁻¹
- kon [2]: 34200 M⁻¹ s⁻¹

B3: 4F11.v2 IgG (antibody, name in Kabat numbering, V domains shown)
VH: EVQLVESGGGLVQPGGSLRLSCAASGHTFTTYGMSWVRQAPGKGLEWVGWINTHSGVPTYADDFKGRFTISRDNSKNTTYLQMNSLRAEDTAVYYCARLGSSAVDYWGQGTLVTVSS
VL: DIQMTQSPSSLSASVGDRVTITCKASQSVDYDGDSYMSWYQQKPGKAPKLLIYGASNLESGVPSRFSGSGSGTDFTLTISSLQPEDFATYYCQQNNEDPYTFGQGTKVEIKR
notes: IgG; Kabat numbering
- Kd [2]: 54.4 nM
- koff [2]: 0.00291 s⁻¹
- kon [2]: 53500 M⁻¹ s⁻¹

B4: 4F11.v3 IgG (antibody, name in Kabat numbering, V domains shown)
VH: EVQLVESGGGLVQPGGSLRLSCAASGHTFTTYGMSWVRQAPGKGLEWVGWINTHSGVPTYADDFKGRFTISRDNSKNTVYLQMNSLRAEDTAVYYCARLGSSAVDYWGQGTLVTVSS
VL: DIQMTQSPSSLSASVGDRVTITCKASQSVDYDGDSYMSWYQQKPGKAPKLLIYGASNLESGVPSRFSGSGSGTDFTLTISSLQPEDFATYYCQQNNEDPYTFGQGTKVEIKR
notes: IgG; Kabat numbering
- Kd [2]: 34.6 nM
- koff [2]: 0.00292 s⁻¹
- kon [2]: 84500 M⁻¹ s⁻¹

B5: 4F11.v13 IgG (antibody, name in Kabat numbering, V domains shown)
VH: EVQLVESGGGLVQPGGSLRLSCAASGHTFTTYGMSWVRQAPGKGLEWVGWINTHSGVPTYADDFKGRFTISLDNSKNTAYLQMNSLRAEDTAVYYCARLGSSAVDYWGQGTLVTVSS
VL: DIQLTQSPSSLSASVGDRVTITCKASQSVDYDGDSYMSWYQQKPGKAPKLLIYGASNLESGVPSRFSGSGSGTDFTLTISSLQPEDFATYYCQQNNEDPYTFGQGTKVEIKR
notes: IgG; Kabat numbering
- Kd [1]: 12.5 nM
- koff [1]: 0.00186 s⁻¹
- kon [1]: 149000 M⁻¹ s⁻¹

B6: 4F11.v14 IgG (antibody, name in Kabat numbering, V domains shown)
VH: EIQLVESGGGLVQPGGSLRLSCAASGHTFTTYGMSWVRQAPGKGLEWMGWINTHSGVPTYADDFKGRFTFSLDTSASTAYLQMNSLRAEDTAVYFCARLGSSAVDYWGQGTLVTVSS
VL: DIQLTQSPSSLSASVGDRVTITCKASQSVDYDGDSYMSWYQQKPGKAPKLLIYGASNLESGVPSRFSGSGSGTDFTLTISSLQPEDFATYYCQQNNEDPYTFGQGTKVEIKR
notes: IgG; Kabat numbering
- Kd [1]: 7 nM
- koff [1]: 0.000984 s⁻¹
- kon [1]: 141000 M⁻¹ s⁻¹

B7: 4F11.v16 IgG (antibody, name in Kabat numbering, V domains shown)
VH: EIQLVESGGGLVQPGGSLRLSCAASGHTFTTYGMSWVRQAPGKGLEWMGWINTHSGVPTYADDFKGRFTFSLDTSASTAYLQMNSLRAEDTAVYFCARLGSSAVDYWGQGTLVTVSS
VL: DIQMTQSPSSLSASVGDRVTITCKASQSVDYDGDSYMSWYQQKPGKAPKLLIYGASNLESGVPSRFSGSGSGTDFTLTISSLQPEDFATYYCQQNNEDPYTFGQGTKVEIKR
notes: IgG; Kabat numbering
- Kd [1]: 16.8 nM
- koff [1]: 0.00165 s⁻¹
- kon [1]: 98100 M⁻¹ s⁻¹

B8: 4F11.v4 IgG (antibody, V domains shown)
VH: EVQLVESGGGLVQPGGSLRLSCAASGHTFTTYGMSWVRQAPGKGLEWVGWINTHSGVPTYADDFKGRFTISRDNSKNTVYLQMNSLRAEDTAVYYCARLGSSAVDYWGQGTLVTVSS
VL: DIQMTQSPSSLSASVGDRVTITCKASQSVDYRGDSYMSWYQQKPGKAPKLLIYGASNLESGVPSRFSGSGSGTDFTLTISSLQPEDFATYYCQQNNEDPYTFGQGTKVEIK
notes: IgG; Kabat numbering
- Kd [2]: 13.6 nM
- koff [2]: 0.00314 s⁻¹
- kon [2]: 231000 M⁻¹ s⁻¹

B9: 4F11.v5 IgG (antibody, V domains shown)
VH: EVQLVESGGGLVQPGGSLRLSCAASGHTFTTYGMSWVRQAPGKGLEWVGWINTHSGVPTYADDFKGRFTISRDNSKNTVYLQMNSLRAEDTAVYYCARLGSSAVDYWGQGTLVTVSS
VL: DIQMTQSPSSLSASVGDRVTITCKASQSVDYDGDSYVSWYQQKPGKAPKLLIYGASNLESGVPSRFSGSGSGTDFTLTISSLQPEDFATYYCQQNNEDPYTFGQGTKVEIK
notes: IgG; Kabat numbering
- Kd [2]: 34 nM
- koff [2]: 0.00242 s⁻¹
- kon [2]: 71100 M⁻¹ s⁻¹

B10: 4F11.v9 IgG (antibody, V domains shown)
VH: EVQLVESGGGLVQPGGSLRLSCAASGHTRTTYGMSWVRQAPGKGLEWVGWINTHSGVPTYADDFKGRFTISRDNSKNTVYLQMNSLRAEDTAVYYCARLGSSAVDYWGQGTLVTVSS
VL: DIQMTQSPSSLSASVGDRVTITCKASQSVDYDGDSYMSWYQQKPGKAPKLLIYGASNLESGVPSRFSGSGSGTDFTLTISSLQPEDFATYYCQQNNEDPYTFGQGTKVEIK
notes: IgG; Kabat numbering
- Kd [2]: 9 nM
- koff [2]: 0.0023 s⁻¹
- kon [2]: 264000 M⁻¹ s⁻¹

B11: 4F11.v12 IgG (antibody, V domains shown)
VH: EVQLVESGGGLVQPGGSLRLSCAASGHTFTTYGMSWVRQAPGKGLEWVGWINIHSGVPTYADDFKGRFTISRDNSKNTVYLQMNSLRAEDTAVYYCARLGSSAVDYWGQGTLVTVSS
VL: DIQMTQSPSSLSASVGDRVTITCKASQSVDYDGDSYMSWYQQKPGKAPKLLIYGASNLESGVPSRFSGSGSGTDFTLTISSLQPEDFATYYCQQNNEDPYTFGQGTKVEIK
notes: IgG; Kabat numbering
- Kd [2]: 11.1 nM
- koff [2]: 0.00218 s⁻¹
- kon [2]: 196000 M⁻¹ s⁻¹

B12: 18F7.v6C IgG (antibody, V domains shown)
VH: EVQLVESGGGLVQPGGSLRLSCAASGYTFIDYYMNWVRQAPGKGLEWVGDINLDNSGTHYNQKFKGRFTISRDKSKNTAYLQMNSLRAEDTAVYYCAREGVYHDYDDYAMDYWGQGTLVTVSS
VL: DIQMTQSPSSLSASVGDRVTITCRTSQSLVHINGITYLHWYQQKPGKAPKLLIYRVSNRFSGVPSRFSGSGSGTDFTLTISSLQPEDFATYYCGQSTHVPLTFGQGTKVEIK
notes: IgG; Variant of 18F7.v6
- Kd (p5 peptide of EGFL7 [3]): 4.13 nM
- koff (p5 peptide of EGFL7 [3]): 0.000502 s⁻¹
- kon (p5 peptide of EGFL7 [3]): 124000 M⁻¹ s⁻¹
- Kd [4]: 2.4 nM
- koff [4]: 8.1e-05 s⁻¹
- kon [4]: 36000 M⁻¹ s⁻¹

B13: 18F7.v6A IgG (antibody, V domains shown)
VH: EVQLVESGGGLVQPGGSLRLSCAASGYTFIDYYMNWVRQAPGKGLEWVGDINLDNGGTHYNQKFKGRFTISRDKSKNTAYLQMNSLRAEDTAVYYCAREGVYHDYDDYAMDYWGQGTLVTVSS
VL: DIQMTQSPSSLSASVGDRVTITCRTSQSLVHISGITYLHWYQQKPGKAPKLLIYRVSNRFSGVPSRFSGSGSGTDFTLTISSLQPEDFATYYCGQSTHVPLTFGQGTKVEIK
notes: IgG; Variant of 18F7.v6
- Kd (p5 peptide of EGFL7 [3]): 3.74 nM
- koff (p5 peptide of EGFL7 [3]): 0.00137 s⁻¹
- kon (p5 peptide of EGFL7 [3]): 373000 M⁻¹ s⁻¹
- Kd [4]: 7.29 nM
- koff [4]: 0.000404 s⁻¹
- kon [4]: 55000 M⁻¹ s⁻¹

B14: 18F7.v6B IgG (antibody, V domains shown)
VH: EVQLVESGGGLVQPGGSLRLSCAASGYTFIDYYMNWVRQAPGKGLEWVGDINLDSGGTHYNQKFKGRFTISRDKSKNTAYLQMNSLRAEDTAVYYCAREGVYHDYDDYAMDYWGQGTLVTVSS
VL: DIQMTQSPSSLSASVGDRVTITCRTSQSLVHINGITYLHWYQQKPGKAPKLLIYRVSNRFSGVPSRFSGSGSGTDFTLTISSLQPEDFATYYCGQSTHVPLTFGQGTKVEIK
notes: IgG; Variant of 18F7.v6
- Kd (p5 peptide of EGFL7 [3]): 3.22 nM
- koff (p5 peptide of EGFL7 [3]): 0.000638 s⁻¹
- kon (p5 peptide of EGFL7 [3]): 196000 M⁻¹ s⁻¹
- Kd [4]: 2.68 nM
- koff [4]: 0.000174 s⁻¹
- kon [4]: 79000 M⁻¹ s⁻¹

B15: 18F7.v6D IgG (antibody, V domains shown)
VH: EVQLVESGGGLVQPGGSLRLSCAASGYTFIDYYMNWVRQAPGKGLEWVGDINLDSGGTHYNQKFKGRFTISRDKSKNTAYLQMNSLRAEDTAVYYCAREGVYHDYDDYAMDYWGQGTLVTVSS
VL: DIQMTQSPSSLSASVGDRVTITCRTSQSLVHISGITYLHWYQQKPGKAPKLLIYRVSNRFSGVPSRFSGSGSGTDFTLTISSLQPEDFATYYCGQSTHVPLTFGQGTKVEIK
notes: IgG; Variant of 18F7.v6
- Kd [5]: 7.65 nM
- koff [5]: 0.000791 s⁻¹
- kon [5]: 103000 M⁻¹ s⁻¹
- Kd (p5 peptide of EGFL7 [3]): 9.77 nM
- koff (p5 peptide of EGFL7 [3]): 0.00232 s⁻¹
- kon (p5 peptide of EGFL7 [3]): 313000 M⁻¹ s⁻¹

B16: 18F7.v10 IgG (antibody, V domains shown)
VH: EVQLVESGGGLVQPGGSLRLSCAASGYTFIDYYMNWVRQAPGKGLEWVGDINLDNGGTHYNQKFKGRFTISRDKSKNTAYLQMNSLRAEDTAVYYCAREGVYHPYDDYAMDYWGQGTLVTVSS
VL: DIQMTQSPSSLSASVGDRVTITCRTSQSLVHINGITYLHWYQQKPGKAPKLLIYRVSNRFSGVPSRFSGSGSGTDFTLTISSLQPEDFATYYCSQSTHVPLTFGQGTKVEIK
notes: IgG; Kabat numbering
- Kd [5]: 1.22 nM
- koff [5]: 0.000195 s⁻¹
- kon [5]: 160000 M⁻¹ s⁻¹
- Kd (p5 peptide of EGFL7 [6]): 0.982 nM
- koff (p5 peptide of EGFL7 [6]): 0.000811 s⁻¹
- kon (p5 peptide of EGFL7 [6]): 825000 M⁻¹ s⁻¹
